{
  "source": "paper PMC6105678",
  "key": {"[1]": {"molecular_target": "Bonsai gelsolin, fragment 28–161 of gelsolin (human)", "test": "SAXS; 28–161 at 8 mg/ml, 1 mM EGTA, 40 °C"}, "[2]": {"molecular_target": "Bonsai gelsolin, fragment 28–161 of gelsolin (human)", "test": "SEC; 8 mg/ml in EGTA buffer heated at 30 °C for 30 min, cooled to room temperature; 200 μl injected, column at room temperature"}, "[3]": {"molecular_target": "Bonsai gelsolin, fragment 28–161 of gelsolin (human)", "test": "SAXS; 28–161 at 8 mg/ml, 1 mM EGTA, 30 °C"}, "[4]": {"molecular_target": "Bonsai gelsolin, fragment 28–161 of gelsolin (human)", "test": "SAXS; 28–161 at 8 mg/ml, 1 mM free Ca2+, 40 °C"}},
  "data": [
    {"substance": "Bonsai gelsolin, fragment 28–161 of gelsolin (domain or fragment)", "values": [
      {"measurement": "stoichiometry N", "setting": "[1]", "result": 4},
      {"measurement": "stoichiometry N", "setting": "[2]", "result": 2},
      {"measurement": "stoichiometry N", "setting": "[3]", "result": 2},
      {"measurement": "stoichiometry N", "setting": "[4]", "result": 2}
    ]}
  ]
}
